Consider two sequences from article PMC5031971.

In general, Kd refers to the constant that tells how readily two partners part at equilibrium.

For the series, the target named is T1, CCR7 (human) (UniProt P32248).
T1 sequence: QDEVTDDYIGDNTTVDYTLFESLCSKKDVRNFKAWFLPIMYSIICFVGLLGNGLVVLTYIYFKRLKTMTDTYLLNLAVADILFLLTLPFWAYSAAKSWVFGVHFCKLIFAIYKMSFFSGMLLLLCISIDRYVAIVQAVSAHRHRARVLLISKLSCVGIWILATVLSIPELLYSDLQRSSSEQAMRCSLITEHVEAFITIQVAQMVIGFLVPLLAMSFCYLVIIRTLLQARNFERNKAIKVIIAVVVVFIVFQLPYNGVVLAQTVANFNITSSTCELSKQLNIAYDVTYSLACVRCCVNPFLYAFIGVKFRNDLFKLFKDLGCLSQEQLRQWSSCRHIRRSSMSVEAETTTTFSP
In words: flow cytometry, live cells. To be noted: H9 cells (CCR7 positive), Cy3-RNA; 2'-F C and 2'-F U (all pyrimidines); Flow cytometry: 2.5e5 cells in 100 uL binding buffer, 30 min, room temperature; refolding/washing buffer DPBS pH 7.0-7.4, 1 mM CaCl2, 1 mM MgCl2, 2.7 mM KCl …. For orientation: A flow cytometer gives signals particle by particle.

“GGGAGGACGAUGCGGAAUUCGUCAAAGUCGUUUAUUUCGUCUGUGCAGACGACUCGCCCGA [C-2A]”: the Kd came out at 0.0652 µM. The figure for “GGGAGGACGAUGCGGUGCCGCACAUUAGUCUCUGGUUGCCCACGCCAGACGACUCGCCCGA [DD9-9]” is 0.111 µM.
